System: Escherichia coli TOP10
Assay: shrunken log2 fold change of peptide-encoding DNA abundance (4.5 h post-induction vs induction); higher = less antimicrobial activity (less host growth inhibition)
Details: time post-induction: 4.5 h; library: site-saturation at positions 5, 18, 19, 20
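Further: peptides expressed intracellularly from a pBAD plasmid library in pooled LB shake-flask culture, induced with 0.3% L-arabinose, DNA abundance read by NGS, three biological replicates, DESeq2 with apeglm shrinkage.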

Sequence: RRIRARPPRLPRPRPRPYHCPRP
- shrunken log2 fold change: -0.0366

Sequence: RRIRSRPPRLPRPRPRPMAIPRP
- shrunken log2 fold change: 4e-05

Sequence: RRIRARPPRLPRPRPRPQWPPRP
- shrunken log2 fold change: 0.366

Sequence: RRIRFRPPRLPRPRPRPDFPPRP
- shrunken log2 fold change: -0.0311

Sequence: RRIRMRPPRLPRPRPRPQSIPRP
- shrunken log2 fold change: -0.0553

Sequence: RRIRKRPPRLPRPRPRPIWEPRP
- shrunken log2 fold change: 0.295

Sequence: RRIRQRPPRLPRPRPRPEMWPRP
- shrunken log2 fold change: 0.483

Sequence: RRIRIRPPRLPRPRPRPMKQPRP
- shrunken log2 fold change: -0.0367

Sequence: RRIRCRPPRLPRPRPRPEPKPRP
- shrunken log2 fold change: 0.104

Sequence: RRIRARPPRLPRPRPRPWTNPRP
- shrunken log2 fold change: 0.124

Sequence: RRIRQRPPRLPRPRPRPATEPRP
- shrunken log2 fold change: -0.037

Sequence: RRIRERPPRLPRPRPRPEPGPRP
- shrunken log2 fold change: 0.667

Sequence: RRIRQRPPRLPRPRPRPMWWPRP
- shrunken log2 fold change: 0.128

Sequence: RRIRWRPPRLPRPRPRPCNLPRP
- shrunken log2 fold change: -0.161

Sequence: RRIRDRPPRLPRPRPRPITKPRP
- shrunken log2 fold change: 0.283

Sequence: RRIRFRPPRLPRPRPRPKHPPRP
- shrunken log2 fold change: 0.194

Sequence: RRIRMRPPRLPRPRPRPKTKPRP
- shrunken log2 fold change: 0.557

Sequence: RRIRIRPPRLPRPRPRPTAPPRP
- shrunken log2 fold change: 0.0608

Sequence: RRIRCRPPRLPRPRPRPRMFPRP
- shrunken log2 fold change: 0.0907

Sequence: RRIRRRPPRLPRPRPRPSVSPRP
- shrunken log2 fold change: -0.0175

Sequence: RRIRIRPPRLPRPRPRPKEAPRP
- shrunken log2 fold change: 0.0518

Sequence: RRIRERPPRLPRPRPRPIEKPRP
- shrunken log2 fold change: 0.00242

Sequence: RRIRRRPPRLPRPRPRPWLYPRP
- shrunken log2 fold change: 0.0161

Sequence: RRIRLRPPRLPRPRPRPCVWPRP
- shrunken log2 fold change: -0.0182

Sequence: RRIRSRPPRLPRPRPRPAPAPRP
- shrunken log2 fold change: 0.741

Sequence: RRIRERPPRLPRPRPRPNVWPRP
- shrunken log2 fold change: 0.133

Sequence: RRIRGRPPRLPRPRPRPLMAPRP
- shrunken log2 fold change: 1.39

Sequence: RRIRVRPPRLPRPRPRPEYLPRP
- shrunken log2 fold change: -0.191

Sequence: RRIRLRPPRLPRPRPRPWTYPRP
- shrunken log2 fold change: 0.0062

Sequence: RRIRGRPPRLPRPRPRPIGKPRP
- shrunken log2 fold change: 0.035

Sequence: RRIRRRPPRLPRPRPRPQVLPRP
- shrunken log2 fold change: 0.0646

Sequence: RRIRLRPPRLPRPRPRPRWYPRP
- shrunken log2 fold change: -0.206

Sequence: RRIRHRPPRLPRPRPRPKQYPRP
- shrunken log2 fold change: -0.439

Sequence: RRIRMRPPRLPRPRPRPWYWPRP
- shrunken log2 fold change: -0.724

Sequence: RRIRPRPPRLPRPRPRPIQSPRP
- shrunken log2 fold change: -0.083

Sequence: RRIRHRPPRLPRPRPRPAMQPRP
- shrunken log2 fold change: 0.325

Sequence: RRIRIRPPRLPRPRPRPFVRPRP
- shrunken log2 fold change: -0.0158

Sequence: RRIRSRPPRLPRPRPRPPRWPRP
- shrunken log2 fold change: 0.722

Sequence: RRIRARPPRLPRPRPRPIWSPRP
- shrunken log2 fold change: 1.14

Sequence: RRIRHRPPRLPRPRPRPETGPRP
- shrunken log2 fold change: -0.0213

Sequence: RRIRDRPPRLPRPRPRPDIPPRP
- shrunken log2 fold change: 0.213

Sequence: RRIRERPPRLPRPRPRPATEPRP
- shrunken log2 fold change: -0.155

Sequence: RRIRNRPPRLPRPRPRPALHPRP
- shrunken log2 fold change: -0.296

Sequence: RRIRNRPPRLPRPRPRPYEEPRP
- shrunken log2 fold change: -0.277

Sequence: RRIRERPPRLPRPRPRPGAEPRP
- shrunken log2 fold change: 0.372

Sequence: RRIRCRPPRLPRPRPRPCVRPRP
- shrunken log2 fold change: -0.163

Sequence: RRIRSRPPRLPRPRPRPWMLPRP
- shrunken log2 fold change: -0.14

Sequence: RRIRARPPRLPRPRPRPLKDPRP
- shrunken log2 fold change: 0.0838

Sequence: RRIRFRPPRLPRPRPRPCWMPRP
- shrunken log2 fold change: -0.0459

Sequence: RRIRYRPPRLPRPRPRPMLLPRP
- shrunken log2 fold change: -0.871

Sequence: RRIRHRPPRLPRPRPRPPDIPRP
- shrunken log2 fold change: -0.0817

Sequence: RRIRARPPRLPRPRPRPCPFPRP
- shrunken log2 fold change: -0.154

Sequence: RRIRMRPPRLPRPRPRPFRGPRP
- shrunken log2 fold change: -0.205

Sequence: RRIRGRPPRLPRPRPRPMANPRP
- shrunken log2 fold change: 0.057

Sequence: RRIRCRPPRLPRPRPRPNTYPRP
- shrunken log2 fold change: -0.774

Sequence: RRIRSRPPRLPRPRPRPNYAPRP
- shrunken log2 fold change: -0.327

Sequence: RRIRQRPPRLPRPRPRPVSNPRP
- shrunken log2 fold change: -0.0478

Sequence: RRIRNRPPRLPRPRPRPGPKPRP
- shrunken log2 fold change: 0.284

Sequence: RRIRKRPPRLPRPRPRPSMHPRP
- shrunken log2 fold change: 0.401

Sequence: RRIRPRPPRLPRPRPRPMDHPRP
- shrunken log2 fold change: 0.0131

— the supplement of paper PMC9112550, “Optimization of the antimicrobial peptide Bac7 by deep mutational scanning” (BMC Biology, 2022)
